Measured values taken from paper PMC11947611, “Functional and structural characterization of Staphylococcus aureus N‐acetylglucosamine 1‐phosphate uridyltransferase (GlmU) reveals a redox‐sensitive acetyltransferase activity” (Protein Science : A Publication of the Protein Society, 2025).

Molecular target: the molecule itself
Experiment: crystal structure; cocrystals of WT SaGlmU with AcCoA and citrate (PDB 9DQF) and with UTP, CoA and Glc 1-P (PDB 9DR4); reducing conditions, 0.5 mM DTT; 200 mM lithium citrate tribasic tetrahydrate, 15-20% PEG 3350; one monomer in the asymmetric unit, trimer assembly

B1: Staphylococcus aureus N-acetylglucosamine 1-phosphate uridyltransferase (GlmU), wild type (enzyme, Staphylococcus aureus NCTC 8325)
chain: MRRHAIILAAGKGTRMKSKKYKVLHEVAGKPMVEHVLESVKGSGVDQVVTIVGHGAESVKGHLGERSLYSFQEEQLGTAHAVQMAKSHLEDKEGTTIVVCGDTPLITKETLVTLIAHHEDANAQATVLSASIQQPYGYGRIVRNASGRLERIVEEKDATQAEKDINEISSGIFAFNNKTLFEKLTQVKNDNAQGEYYLPDVLSLILNDGGIVEVYRTNDVEEIMGVNDRVMLSQAEKAMQRRTNHYHMLNGVTIIDPDSTYIGPDVTIGSDTVIEPGVRINGRTEIGEDVVIGQYSEINNSTIENGACIQQSVVNDASVGANTKVGPFAQLRPGAQLGADVKVGNFVEIKKADLKDGAKVSHLSYIGDAVIGERTNIGCGTITVNYDGENKFKTIVGKDSFVGCNVNLVAPVTIGDDVLVAAGSTITDDVPNDSLAVARARQTTKEGYRK
notes: GlmU of Staphylococcus aureus NCTC 8325; the glmU gene was amplified by PCR from genomic DNA; the domains described in the structure span Res. 1-228 (uridyltransferase), 229-251 (linker) and 252-450 (acetyltransferase); Plasmid 6xHis-SaGlmU-pET-16b (NcoI/BamHI); No removal of the tag is described; By intact mass the N-terminal methionine is removed; also called SaGlmU; WT SaGlmU
stoichiometry N: 3
